Consider two variants from paper PMC5175334.

To fix the notation:
B1: full-length wild-type TRBP (TRBP-WT), lentivirally expressed in HDLECs [human] / S6K2 (S6 kinase 2), endogenous [human (endogenous in HDLEC)] (parent)
chain 1: MSEEEQGSGTTTGCGLPSIEQMLAANPGKTPISLLQEYGTRIGKTPVYDLLKAEGQAHQPNFTFRVTVGDTSCTGQGPSKKAAKHKAAEVALKHLKGGSMLEPALEDSSSFSPLDSSLPEDIPVFTAAAAATPVPSVVLTRSPPMELQPPVSPQQSECNPVGALQELVVQKGWRLPEYTVTQESGPAHRKEFTMTCRVERFIEIGSGTSKKLAKRNAAAKMLLRVHTVPLDARDGNEVEPDDDHFSIGVGSRLDGLRNRGPGCTWDSLRNSVGEKILSLRSCSLGSLGALGPACCRVLSELSEEQAFHVSYLDIEELSLSGLCQCLVELSTQPATVCHGSATTREAARGEAARRALQYLKIMAGSK
chain 2: MAAVFDLDLETEEGSEGEGEPELSPADACPLAELRAAGLEPVGHYEEVELTETSVNVGPERIGPHCFELLRVLGKGGYGKVFQVRKVQGTNLGKIYAMKVLRKAKIVRNAKDTAHTRAERNILESVKHPFIVELAYAFQTGGKLYLILECLSGGELFTHLEREGIFLEDTACFYLAEITLALGHLHSQGIIYRDLKPENIMLSSQGHIKLTDFGLCKESIHEGAVTHTFCGTIEYMAPEILVRSGHNRAVDWWSLGALMYDMLTGSPPFTAENRKKTMDKIIRGKLALPPYLTPDARDLVKKFLKRNPSQRIGGGPGDAADVQRHPFFRHMNWDDLLAWRVDPPFRPCLQSEEDVSQFDTRFTRQTPVDSPDDTALSESANQAFLGFTYVAPSVLDSIKEGFSFQPKLRSPRRLNSSPRAPVSPLKFSPFEGFRPSPSLPEPTELPLPPLLPPPPPSTTAPLPIRPPSGTKKSKRGRGRPGR

Variants of B1 are the subject of one experiment. As to the kind of experiment: proximity ligation assay (PLA) in cells. The settings on record: with S6K2 (S6 kinase 2), HDLECs transduced with TRBP-DD lentivirus (200 ml/80 000 cells), endogenous TRBP also present, parent: 31, read off a plot.
For chain 1 S283D S286D, the response (PLA events per HDLEC) was 7.

The variants in another experiment derive from B1. As to the kind of experiment: co-immunoprecipitation, band quantification. Conditions: with S6K2, lentivirally over-expressed in HEK293 cells; HEK293 cells over-expressing S6K2 and TRBP-WT or TRBP-DD; parent: 1; read off a plot.
Take chain 1 S283D S286D: the ratio to parent was found to be 0.16.

Variants of B1 are the subject of another experiment. As to the kind of experiment: proximity ligation assay (PLA) in cells. The settings on record: with S6K2 (S6 kinase 2), HDLECs transduced with TRBP-AA lentivirus (600 ml/80 000 cells), endogenous TRBP also present, parent: 31, read off a plot.
Take chain 1 S283A S286A: the response (PLA events per HDLEC) is 20.
